Measured values as given in US20260193326A1 (published 2026).

Assays:
AAV5 [1] = molecular target: T1, AAV5 (adeno-associated virus 5); experiment: SPR, AAV amine-coupled to CM5 chip;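 further: nanobodies flowed as analyte at seven concentrations spanning 1–100 nM over immobilized AAV (500–800 RU), kinetic constants derived by fitting the binding curves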
T1 construct: also called adeno-associated virus serotype 5
Description: (§1) AAV was amine-coupled to a CM5 sensor chip at a density of 500-800 response units (RU). Nanobodies were injected at seven concentrations (1-100 nM) with a flow rate of 45 μL/min, and chip regeneration was performed using glycine-HCl (pH 1.5). Binding curves at different nanobody concentrations were used to calculate kinetic parameters (Kₐ, Kd, KD) (Table 2 and FIG. 2).

AAV9 [2] = molecular target: T2, AAV9 (adeno-associated virus 9); experiment: SPR, AAV amine-coupled to CM5 chip;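 further: nanobodies flowed as analyte at seven concentrations spanning 1–100 nM over immobilized AAV (500–800 RU), kinetic constants derived by fitting the binding curves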
T2 construct: also called adeno-associated virus serotype 9
Description: as §1

AAV8 [3] = molecular target: T3, AAV8 (adeno-associated virus 8); experiment: SPR, AAV amine-coupled to CM5 chip;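 further: nanobodies flowed as analyte at seven concentrations spanning 1–100 nM over immobilized AAV (500–800 RU), kinetic constants derived by fitting the binding curves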
T3 construct: also called adeno-associated virus serotype 8
Description: as §1

AAV5 [4] = molecular target: T4, AAV5; experiment: SPR, AAV on CM5 chip;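 further: surface plasmon resonance with AAV amine-coupled to the chip as ligand, nanobodies injected as analyte over a concentration series, rate constants and affinity fitted from binding curves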
T4 construct: also called adeno-associated virus serotype 5
Description: as §1

AAV9 [5] = molecular target: T5, AAV9; experiment: SPR, AAV on CM5 chip;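 further: surface plasmon resonance with AAV amine-coupled to the chip as ligand, nanobodies injected as analyte over a concentration series, rate constants and affinity fitted from binding curves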
T5 construct: also called adeno-associated virus serotype 9
Description: as §1

AAV8 [6] = molecular target: T6, AAV8; experiment: SPR, AAV on CM5 chip;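 further: surface plasmon resonance with AAV amine-coupled to the chip as ligand, nanobodies injected as analyte over a concentration series, rate constants and affinity fitted from binding curves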
T6 construct: also called adeno-associated virus serotype 8
Description: as §1

Binder | Kd (AAV5 [1]) | koff (AAV5 [1]) | kon (AAV5 [1]) | Kd (AAV9 [2]) | koff (AAV9 [2]) | kon (AAV9 [2]) | Kd (AAV8 [3]) | koff (AAV8 [3]) | kon (AAV8 [3]) | Kd (AAV5 [4]) | koff (AAV5 [4]) | kon (AAV5 [4]) | Kd (AAV9 [5]) | koff (AAV9 [5]) | kon (AAV9 [5]) | Kd (AAV8 [6]) | koff (AAV8 [6]) | kon (AAV8 [6])
A4-055 (VHH) VHH: VQLQESGGGLVQPGGSLRLSCAASGSIFSINTMGWYRQAPGKQRELVAAVTRGGSTNYADSVKGRFTISRDNAKNTVYLQMNSLRPEDTAVYYCHVDEVRQSSWTTSNLWGQGTQVTVSS | 1.11 nM | 0.00022 s⁻¹ | 198000 M⁻¹ s⁻¹ | 4.06 nM | 0.00032 s⁻¹ | 78800 M⁻¹ s⁻¹ | 2.23 nM | 0.00044 s⁻¹ | 198000 M⁻¹ s⁻¹ | – | – | – | – | – | – | – | – | –
A4-031 (VHH) VHH: VQLQESGGGLVQPGGSLRLSCAASGSGFSINTMGWYRQAPGKQRELVATVTSAGSTNYAGSVKGRFTISRDNAKNTVYLQMNSLRPEDTAVYYCHVDEIRQSSWTTSNLWGQGTQVTVSS | – | – | – | – | – | – | – | – | – | 41.9 nM | 0.00624 s⁻¹ | 149000 M⁻¹ s⁻¹ | 2240 nM | 0.00824 s⁻¹ | 3690 M⁻¹ s⁻¹ | 182 nM | 0.00923 s⁻¹ | 50700 M⁻¹ s⁻¹
A4-050 (VHH) VHH: VQLQESGGGLVQPGGSLRLSCAASGSSFVINTMGWYRQAPGKQRELVAAVTRGGSTNYADSVKGRFTISRDNAKNTVYLQMNSLRPEDTAVYYCHVDEVRQSSWTTSNLWGQGTQVTVSS | – | – | – | – | – | – | – | – | – | 7 nM | 7e-05 s⁻¹ | 10000 M⁻¹ s⁻¹ | 2.52 nM | 0.00049 s⁻¹ | 194000 M⁻¹ s⁻¹ | 2.44 nM | 0.00043 s⁻¹ | 176000 M⁻¹ s⁻¹
A4-043 (VHH) VHH: VQLQESGGGLVQPGGSLRLSCAASGRAFSINTMGWYRQAPGKQRELVATVTRDGSTNYAGSVKGRFTISRDNAKNTVYLQMNSLRPEDTAVYYCHVDEVRQSSWTTSNLWGQGTQVTVSS | – | – | – | – | – | – | – | – | – | 7.73 nM | 0.00028 s⁻¹ | 36200 M⁻¹ s⁻¹ | 0.278 nM | 4e-05 s⁻¹ | 144000 M⁻¹ s⁻¹ | 5.45 nM | 0.00104 s⁻¹ | 191000 M⁻¹ s⁻¹
A4-042 (VHH) VHH: VQLQESGGGLVQPGGSLRLSCAASGRAFSINTMGWYRQAPGKQRELVATVTRDGSTNYADSVKGRFTISRDNAKNTVYLQMNSLRPEDTAVYYCHVDEVRQSSWTTSNLWGQGTQVTVSS | – | – | – | – | – | – | – | – | – | 152 nM | 0.00118 s⁻¹ | 7760 M⁻¹ s⁻¹ | 308 nM | 0.00144 s⁻¹ | 4680 M⁻¹ s⁻¹ | 125 nM | 0.00042 s⁻¹ | 3360 M⁻¹ s⁻¹
A4-033 (VHH) VHH: VQLQESGGGLVQPGGSLRLSCVASGSSFSINTMGWYRRAPGKQRELVATVTRDGSTNYANSVKGRFTISRDNAKNTVYLQMNSLRPEDTAVYYCHVDEVRQSSWTTSNLWGQGTQVTVSS | – | – | – | – | – | – | – | – | – | 243 nM | 0.002 s⁻¹ | 8220 M⁻¹ s⁻¹ | 199 nM | 0.00045 s⁻¹ | 2270 M⁻¹ s⁻¹ | 89.2 nM | 0.00034 s⁻¹ | 3810 M⁻¹ s⁻¹
A4-028 (VHH) VHH: VQLQESGGGLVQPGGSLRLSCAASGSNFSINTMGWYRQAPGKQRELVATVTRGGDTNYADSVKGRFTISRDNAKNTVYLQMNSLRPEDTAVYYCHVDEIRESSWTTSNLWGQGTQVTVSS | – | – | – | – | – | – | – | – | – | 26.4 nM | 0.00162 s⁻¹ | 61300 M⁻¹ s⁻¹ | 1.09 nM | 9e-05 s⁻¹ | 82400 M⁻¹ s⁻¹ | 6.34 nM | 0.00084 s⁻¹ | 133000 M⁻¹ s⁻¹
A4-025 (VHH) VHH: VQLQESGGGLVQPGGSLRLSCAASGSNFRINTMGWYRQAPGKQRELVATVTRGGSTNYADSVKGRFTISRDNPKDTVYLQMNSLRPEDTAVYYCHVDEVRESSWTTSNLWGQGTQVTVSS | – | – | – | – | – | – | – | – | – | 85.5 nM | 0.00041 s⁻¹ | 4800 M⁻¹ s⁻¹ | 0.737 nM | 0.00012 s⁻¹ | 163000 M⁻¹ s⁻¹ | 2.09 nM | 0.00026 s⁻¹ | 124000 M⁻¹ s⁻¹
A4-040 (VHH) VHH: VQLQESGGGLVQPGGSLRLSCAASGRIFSINTMGWYRQAPGKQRELVATVTRGGSTNYADSVKGRFTISRDNAKNTVYLQMNSLRPEDTAVYYCHVDEIRQSSWTTSNLWGQGTQVTVSS | – | – | – | – | – | – | – | – | – | 3.04 nM | 0.00022 s⁻¹ | 72300 M⁻¹ s⁻¹ | 2.19 nM | 0.00022 s⁻¹ | 101000 M⁻¹ s⁻¹ | 1.71 nM | 0.00028 s⁻¹ | 164000 M⁻¹ s⁻¹
A4-027 (VHH) VHH: VQLQESGGGLVQPGGSLRLSCAASGSNFSINTMGWYRQAPGKQRELVAALTRGGSTNYADSVKGRFTISRDNAKNTVYLQMNSLRPEDTAVYYCHVDEVRESSWTTSNLWGQGTQVTVSS | – | – | – | – | – | – | – | – | – | 236 nM | 0.00194 s⁻¹ | 8220 M⁻¹ s⁻¹ | 208 nM | 0.00085 s⁻¹ | 4090 M⁻¹ s⁻¹ | 105 nM | 0.00085 s⁻¹ | 8100 M⁻¹ s⁻¹
A4-037 (VHH) VHH: VQLQESGGGLVQPGGSLRLSCAASGSIFSINTMGWYRQAPGKQRELVATVTRGGSTNYAGSVKGRFTISRDNAKNTVYLQMNSLRPEDTAVYYCHLDEVRQSSWTTSNIWGQGTQVTVSS | – | – | – | – | – | – | – | – | – | 0.88 nM | 0.00012 s⁻¹ | 136000 M⁻¹ s⁻¹ | 4.07 nM | 0.0004 s⁻¹ | 98300 M⁻¹ s⁻¹ | 11.6 nM | 0.0015 s⁻¹ | 129000 M⁻¹ s⁻¹
A4-049 (VHH) VHH: VQLQESGGGLVQPGGSLRLSCAASGSMFSINTMGWYRQAPGKQRELVAAVTRGGNTNYAGSVKGRFTISRDNAKNTVYLQMNSLRPEDTAVYYCHVDEVRQSSWTTSNLWGQGTQVTVSS | – | – | – | – | – | – | – | – | – | 9.61 nM | 0.00158 s⁻¹ | 164000 M⁻¹ s⁻¹ | 93.1 nM | 0.00194 s⁻¹ | 20800 M⁻¹ s⁻¹ | 20.8 nM | 0.00056 s⁻¹ | 26900 M⁻¹ s⁻¹
A4-036 (VHH) VHH: VQLQESGGGLAQAGGSLRLSCAASGRGFSINTMGWYRQAPGKQRELVAAVTRGGTTNYADSVKGRFTISRDNAKNTVYLQMNSLRPEDTAVYYCHVDEVRQSSWTTSNLWGQGTQVTVSS | – | – | – | – | – | – | – | – | – | 810 nM | 0.00621 s⁻¹ | 7670 M⁻¹ s⁻¹ | 1620 nM | 0.00944 s⁻¹ | 5810 M⁻¹ s⁻¹ | 336 nM | 0.00225 s⁻¹ | 6700 M⁻¹ s⁻¹
A4-041 (VHH) VHH: VQLQESGGGLVQPGGSLRLSCAASGRGFSINTMGWYRQAPGKQRELVATVTRGGSTNYANSVKGRFTISRDNAKNTVYLQMNSLRPEDTAVYYCHVDELRQSSWTTSNLWGQGTQVTVSS | – | – | – | – | – | – | – | – | – | 45.9 nM | 0.00616 s⁻¹ | 134000 M⁻¹ s⁻¹ | 8.15 nM | 0.00142 s⁻¹ | 174000 M⁻¹ s⁻¹ | 1980 nM | 0.00245 s⁻¹ | 1240 M⁻¹ s⁻¹
A4-035 (VHH) VHH: VQLQESGGGLVQAGGSLRLSCAASGRGFSINTMGWYRQAPGKQRELVAAVTRGGTTNYADSVKGRFTISRDNAKNTVYLQMNSLRPEDTAVYYCHVDEVRQSSWTTSNLWGQGTQVTVSS | – | – | – | – | – | – | – | – | – | 2.52 nM | 0.0005 s⁻¹ | 199000 M⁻¹ s⁻¹ | 1.73 nM | 0.0001 s⁻¹ | 57800 M⁻¹ s⁻¹ | 1.31 nM | 0.00017 s⁻¹ | 130000 M⁻¹ s⁻¹
A4-029 (VHH) VHH: VQLQESGGGLVQPGGSLRLSCAASGSNFSINTMGWYRQRAGKQRELVATVTRGGSTNYADSVKGRFTISRDNAKNTVYLQMNSLRPEDTAVYYCHIDEIRESSWTTSNLWGQGTQVTVSS | – | – | – | – | – | – | – | – | – | 92.8 nM | 0.00155 s⁻¹ | 16700 M⁻¹ s⁻¹ | 14.6 nM | 0.00141 s⁻¹ | 96900 M⁻¹ s⁻¹ | 0.486 nM | 4e-05 s⁻¹ | 82300 M⁻¹ s⁻¹
A4-045 (VHH) VHH: VQLQESGGGLVQPGGSLRLSCAASGSSFSINTMGWYRQAPGKQRELVAAVTRGGVTNYADSVKGRFTISRDNAKNTVYLQMNSLRPEDTAVYYCHVDEVRQSSWTTSNLWGQGTQVTVSS | – | – | – | – | – | – | – | – | – | 41.3 nM | 0.00037 s⁻¹ | 8950 M⁻¹ s⁻¹ | 37.6 nM | 0.00027 s⁻¹ | 7190 M⁻¹ s⁻¹ | 1.07 nM | 1e-05 s⁻¹ | 9390 M⁻¹ s⁻¹
A4-030 (VHH) VHH: VQLQESGGGLVQPGGSLRLSCAASGSSFTINTMGWYRQAPGKQRELVAAVTRGGSTNYAGSVKGRFTISRDNAKNTIYLQMNSLRPEDTAVYYCHVDEIRQSSWTTSNLWGQGTQVTVSS | – | – | – | – | – | – | – | – | – | 84.4 nM | 0.00028 s⁻¹ | 3320 M⁻¹ s⁻¹ | 27.2 nM | 0.00025 s⁻¹ | 9200 M⁻¹ s⁻¹ | 43.7 nM | 0.00034 s⁻¹ | 7780 M⁻¹ s⁻¹
A4-026 (VHH) VHH: VQLQESGGGLVQPGGSLRLSCAASGSNFRINTMGWYRQAPGKQRELVAPVTRGGSTNYADSVKGRFTISRDNAKNTVYLQMNSLRPEDTAVYYCHVDEVRESSWTTSNLWGQGTQVTVSS | – | – | – | – | – | – | – | – | – | 37.4 nM | 0.00625 s⁻¹ | 167000 M⁻¹ s⁻¹ | 31 nM | 0.00253 s⁻¹ | 81600 M⁻¹ s⁻¹ | 27.2 nM | 0.00184 s⁻¹ | 67700 M⁻¹ s⁻¹
A4-052 (VHH) VHH: VQLQESGGGLVQPGGSLRLSCAASGSIFIINTMGWYRQAPGKQRELVAAVTRGGSTNYADSVKGRFTISRDNAKNTVYLQMNSLRPEDTAVYYCHVDEVRQSSWTTSNLWGQGTQVTVSS | 388 nM | 0.00056 s⁻¹ | 1440 M⁻¹ s⁻¹ | 7.38 nM | 0.00077 s⁻¹ | 104000 M⁻¹ s⁻¹ | 47.6 nM | 0.00151 s⁻¹ | – | – | – | – | – | – | – | – | – | –
